In paper PMC9413444 (ACS Nano, 2022):

Tested on: intracranial glioblastoma GL261 in BL/6 mice
Settings: GL261 tumor-bearing BL/6 mice; IV; 2 h post-injection (Figure 2B)

## poly(β-L-malic acid)-trileucine polymer [P/LLL(40%)]
  increase of fluorescence in tumor tissue from dose 0.25X to dose 1.0X: increases proportionally with the dose administered
